# Data from US20180086841A1 (Merck Sharp & Dohme, published 2018).
# Substitutions are numbered along the chain they refer to.
# T1: H36A
# T1 construct: also called hCD27 H36A
# T1 receptor chain: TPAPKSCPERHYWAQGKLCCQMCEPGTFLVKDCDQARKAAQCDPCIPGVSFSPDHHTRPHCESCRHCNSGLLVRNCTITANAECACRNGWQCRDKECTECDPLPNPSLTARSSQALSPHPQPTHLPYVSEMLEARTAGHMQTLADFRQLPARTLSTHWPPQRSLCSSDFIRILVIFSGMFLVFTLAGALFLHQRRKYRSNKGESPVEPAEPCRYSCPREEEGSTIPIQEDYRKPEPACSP
# T2: E9A
# T2 construct: also called hCD27 E9A
# T2 receptor chain: T1 receptor chain with E9A, A36H
# T3: S63A
# T3 construct: also called hCD27 S63A
# T3 receptor chain: T1 receptor chain with A36H, S63A
# T4: N88A
# T4 construct: also called hCD27 N88A
# T4 receptor chain: T1 receptor chain with A36H, N88A
# T5: I46A
# T5 construct: also called hCD27 I46A
# T5 receptor chain: T1 receptor chain with A36H, I46A
# T6: K31A
# T6 construct: also called hCD27 K31A
# T6 receptor chain: T1 receptor chain with K31A, A36H
# T7: Q91A
# T7 construct: also called hCD27 Q91A
# T7 receptor chain: T1 receptor chain with A36H, Q91A
# T8: R87A
# T8 construct: also called hCD27 R87A
# T8 receptor chain: T1 receptor chain with A36H, R87A
# T9: V49A
# T9 construct: also called hCD27 V49A
# T9 receptor chain: T1 receptor chain with A36H, V49A
# T10: Q15A
# T10 construct: also called hCD27 Q15A
# T10 receptor chain: T1 receptor chain with Q15A, A36H
# B1: hCD27.131A (mouse parental 131A) (antibody, mouse IgG1, V domains shown)
# VH: QIQLVQSGPELKKPGETVKISCKASGYTFTNYGMNWVKQAPGKGLKWMGWINTNTGEPTYAEEFKGRFAFSLETSATTAYLQINNLKNEDTATYFCAREGDAMDYWGQGTSVTVSS
# VL: QIVLTQSPAIMSASPGEKVTMTCSASSSVSYMHWYQQKSGTSPKRWIYDTSKLASGVPARFSGSGSGTSYSLTISSMEAEDAATYYCQQWNSYPFTFGSGTKLEIK
# notes: Mouse IgG1 antibody; also called mouse hCD27.131A
# Key:
# [1] = target: T11, human CD27 (human, UniProt P26842 21-260); assay: flow cytometry MFI, CD4+ T cells of human PBMC, N=2 donors
# T11 construct: also called hCD27; HsCD27
# [2] = target: T1, H36A; assay: flow cytometry on CHO-K1 transfectants, left sub-column, cell hatched (loss of binding)
# Description: (§1) The ability of several anti-hCD27 antibodies to bind to a series of hCD27 alanine mutants was determined using CHO-K1 cells, transiently transfected pCI-neo empty vector, pCI-neo.hCD27 and several pCI-neo.CD27Ala mutant constructs.
# (§2) Detached cells were transferred to 96 wells round-bottomed well plates at approximately 1.2×10⁵ cells/well. After spinning down the cells, discarding the supernatants and re-suspending the cells in the residual volume, the primary antibodies were added and incubated for 30 minutes at 4° C. Cells were washed three times with DPBS/BSA 1%, followed by centrifugation, discarding of the supernatants and re-suspension in the residual volume. […] After washing once, antibody binding was detected using the HTS plate reader (FACS Canto II) and FlowJo software for data analysis. Debris, dead cells and doublets were excluded from the analysis. Binding was expressed as the geometric mean of the FITC signal, relative to antibody binding to hCD27, which was set at 100%.
# [3] = target: T2, E9A; assay: flow cytometry on CHO-K1 transfectants, left sub-column
# Description: (§3) The hCD27 variants that were tested are listed. Amino acids correspond to the UniProt P26842-1 sequence. Amino acids 1-20 constitute the signal peptide. Binding is expressed as the geometric mean of the FITC signal, relative to antibody binding to hCD27, which was set at 100%.
# as §1, §2
# [4] = target: T3, S63A; assay: as above
# Description: as §3, §1, §2
# [5] = target: T4, N88A; assay: as above
# Description: as §3, §1, §2
# [6] = target: T5, I46A; assay: as above
# Description: as §3, §1, §2
# [7] = target: T6, K31A; assay: as above
# Description: as §3, §1, §2
# [8] = target: T7, Q91A; assay: as above
# Description: as §3, §1, §2
# [9] = target: T8, R87A; assay: as above
# Description: as §3, §1, §2
# [10] = target: T9, V49A; assay: as above
# Description: as §3, §1, §2
# [11] = target: T10, Q15A; assay: as above
# Description: as §3, §1, §2
binder,measurement,setting,value
B1,EC50,[1],0.0645 nM
same,"binding, WT hCD27 = 100 (GM FITC)",[2],54.1%
same,"binding, WT hCD27 = 100 (GM FITC)",[3],96.7%
same,"binding, WT hCD27 = 100 (GM FITC)",[4],162%
same,"binding, WT hCD27 = 100 (GM FITC)",[5],162%
same,"binding, WT hCD27 = 100 (GM FITC)",[6],132%
same,"binding, WT hCD27 = 100 (GM FITC)",[7],203%
same,"binding, WT hCD27 = 100 (GM FITC)",[8],148%
same,"binding, WT hCD27 = 100 (GM FITC)",[9],153%
same,"binding, WT hCD27 = 100 (GM FITC)",[10],147%
same,"binding, WT hCD27 = 100 (GM FITC)",[11],99.6%
